Test system: MS2 coat protein
Assay: apparent KD of MS2 coat protein; designed switch direction (-1 OFF switch, 1 ON switch): -1; higher = weaker reporter binding
Summary of the method: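 RNA switches sharing common flanks were transcribed by stalled E. coli RNA polymerase on Illumina chips. A doubling series of SNAP-549-labelled MS2 coat protein, from 0.7 or 1.5 nM to 3 µM, was applied in Tris-HCl pH 7.5 buffer with KCl, MgCl2, BSA, DTT, tRNA and Tween-20. Each step lasted 0.8–1.5 h at the bottom of the series and 10–20 min at the top. Normalised cluster fluorescence was curve-fitted, giving apparent KD as the per-design median over clusters.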

[1] = input ligand: microRNA oligo, concentration not stated
[2] = Eterna round: R95, input ligand: microRNA oligo, concentration not stated
[3] = Eterna round: R95, input ligand: FMN 200 uM
[4] = Eterna round: R95, input ligand: none

Sequence	apparent KD of MS2 coat protein (input ligand: FMN 200 uM)	apparent KD of MS2 coat protein (input ligand: none)	apparent KD of MS2 coat protein [2]	also measured
GUCGUGCAGCUUUGCUGUACGAGUACAUGAGGAUCACCCAUGUAGGAUAUGGUACGCUUUGCGUGCUAGAAGGAUAUGUGUAGG [salish99_ExNG3_r04_501] (Eterna round: R96, puzzle: Exclusion NG 3)	49.3 nM	44.3 nM	–	apparent KD of MS2 coat protein [1]: 41.7 nM
GUCGUGCGGCUGUGCUGUACGAGUACAUGAGGAUCACCCAUGUAGGAUAUGGUUCGUUUUGCGUGCUAGAAGGGCGUGCGUUUU [Excl-NG3-LRO17] (Eterna round: R96, puzzle: Exclusion NG 3)	17.9 nM	21.4 nM	–	apparent KD of MS2 coat protein [1]: 17 nM
GUGAAACAUGAGGAUCACCCAUGUGAGGAUAUGUUUUAGUAAUGAUGAAAGUAAAUCUACAGAAGGCACAAUGG [Mat - Mod of JL D70] (puzzle: Exclusion 1)	–	–	77.9 nM	–
GUGACCAUAGGAUAUACAUGAGGAUCACCCAUGUGCAAGUCGGAAGACCUGCGGUCAUGUAGAAGGAUGUAAUU [EX3 A.19] (Eterna round: R97, puzzle: Exclusion 3)	18.3 nM	20.9 nM	–	–
GUGACUCAGCAGGAUAUACGCGCGAGUGCGUAAGUAGAAGGGUUGACAUGAGGAUCACCCAUGUAGAACCACAC [Eternabot (L2) Solution 18] (Eterna round: R97, puzzle: Exclusion 6)	19.9 nM	18.4 nM	–	–
GUGCAAUGAGGAUAUACGUUGGUGGGCAUCUGUGUGCUCCUACAUGAGGAUCACCCAUGUAGAAGGCAUGUCAC [LRO-Excl2-19] (puzzle: Exclusion 2)	–	–	11.7 nM	–
GUGGUACAUGAGGAUCACCCAUGUUAGGAUAUCGCGUGAGGUAAAACUUACACACACACGAGAAGGGACGACAU (puzzle: Exclusion 1)	–	–	64.4 nM	–
GUGGUGACAGGAUAUACAUGAGGAUCACCCAUGUGAGGAGGACGAGACAGGUGAAGGAGUAGAAGGGUCAGAGA [JR_Exclu3_Sub026] (puzzle: Exclusion 3)	–	–	61.9 nM	apparent KD of MS2 coat protein [3]: 134 nM; apparent KD of MS2 coat protein [4]: 95.6 nM
GUGGUGGGUUUUCCGAGUAACAUGAGGAUCACCCAUGUAUUAGUUUGAUGUAUCAAGCGAAUGGCUCGUCUUAUAUA [JR_SV3TOV1_Sub045] (puzzle: Sensor v3, turn-off variant 1)	–	–	14.5 nM	apparent KD of MS2 coat protein [3]: 128 nM; apparent KD of MS2 coat protein [4]: 107 nM
GUGUACAGAGGAUAUACACGAGUAGUUACGAAAGUAACUAUACAUGAGGAUCACCCAUGUAGAAGGCUGUACAC [Dot plot directed v2] (puzzle: Exclusion 2)	–	–	14.5 nM	–
GUGUACUGAGGAUAUACAUGAGGAUCACCCAUGUGAAUAAGAUAGAAUAAGAUAAAGUGUAGAAGGCAGAGUGU [Excluse me!!! 2 - Jieux - Exclusion 3] (puzzle: Exclusion 3)	–	–	36.9 nM	–
GUGUAGAUAGGAUAUGCAUGAGUCUAGCGAAGCUAGGCUCUACAUGAGGAUCACCCAUGUAGAAGGGUCUACAC [Dot plot directed A v13] (puzzle: Exclusion 2)	–	–	18.6 nM	–
GUGUAGGCAGGAUAUACAUGAGGAUCACCCAUGUGAAUAAGAUAGAAUAAGAUAAAGUGUAGAAGGGUUAGUGU [Excluse me!!! 23 - Jieux - Exclusion 3] (puzzle: Exclusion 3)	–	–	31.7 nM	–
GUUAAGGUAGGAUAUACGAUAAUAUAGGGUAGAAUAUUAACACAUGAGGAUCACCCAUGUAGAAGGACCAAUUG [Mat - Exclusion 2 - Mod of my Tesla design - D51] (puzzle: Exclusion 2)	–	–	21.1 nM	apparent KD of MS2 coat protein [3]: 38.7 nM; apparent KD of MS2 coat protein [4]: 22.8 nM
GUUAAUUGUCACAUGGGUGACAUGAGGAUCACCCAUGUCACAAGCUUUUUGCUCGUCUUAUAAUUAACCCAUGUGAC [Stov1/12-A2] (Eterna round: R97, puzzle: Sensor, turn-off variant 1)	14.7 nM	13.9 nM	–	–
GUUCUUCCUGUGAGGAUAUCCAUGUGUCGGUGUGUGGAGAAGGUACAUGAGGAUCACCCAUGUCACCCGCGUUA (Eterna round: R97, puzzle: Brourd's mod of Exclusion 4)	24.3 nM	19.2 nM	–	–
GUUGCGUUUGUGAGGAUAUGCUGUUCCUUGGUUCGGCAGAAGGCACAUGAGGAUCACCCAUGUGGUGUCGUUCC [salish99_Bmod_ex4_053] (puzzle: Brourd's mod of Exclusion 4)	–	–	14.6 nM	–
GUUGCUACUGAGGAUAUUAUACUACCCGACUGAUAAGAAGGCAGUACAUGAGGAUCACCCAUGUGGGUAGCCAC [Polaris13] (Eterna round: R97, puzzle: Exclusion 6)	25.5 nM	21.7 nM	–	–

Sequence	apparent KD of MS2 coat protein (input ligand: FMN 200 uM)	apparent KD of MS2 coat protein (input ligand: none)	apparent KD of MS2 coat protein [2]	also measured
GUUGCUACUGAGGAUAUUAUUUUACUCGACUGAUAAGAAGGCAGUACAUGAGGAUCACCCAUGUGGGUAGCCAG [Polaris16] (Eterna round: R97, puzzle: Exclusion 6)	64.7 nM	19.3 nM	–	–
GUUGUAUGAGGAUAUACAUGAGGAUCACCCAUGUGUGUUGUGAACGACGUACGUUUAUGUAGAAGGCGUGCGGC [-24.9, -21.8 kcal, 24% A] (Eterna round: R97, puzzle: Exclusion 3)	18.2 nM	17.9 nM	–	–
GUUGUUUAUGUAGGAUAUGCCUGGCGUGCCUUAGCAGAAGGACAUGAGGAUCACCCAUGUAUUGCGGUCUGCGUUCAGAUCGCU [salish99_ExNG1_r4_021] (Eterna round: R96, puzzle: Exclusion NG 1)	37 nM	29.6 nM	–	apparent KD of MS2 coat protein [1]: 25.1 nM
GUUUACAAGCUAAGAUCCUACAUGAGGAUCACCCAUGUGGUCCGGUGACGUGAGUCACCGGACUUAGCUCGUCUUGC [salish99_S_TOV1_R5_089] (Eterna round: R97, puzzle: Sensor, turn-off variant 1)	36 nM	37.2 nM	–	–
GUUUGAUGAGGAUAUCGAGGUUAGUACAUGAGGAUCACCCAUGUUAUCCAGGUGUCGGUUCGAGAAGGUAUUGGAC [LRO-Ex5-15] (puzzle: Exclusion 5)	–	–	18.6 nM	–
GUUUUCAGACGGAGAUCCUACAUGAGGAUCACCCAUGUCUCACUAGUUUUUUGCUCGUCUUAUCCUCCUCUGUUCUC [Elimod 29 - Jieux - Sensor, turn-off variant 1] (Eterna round: R97, puzzle: Sensor, turn-off variant 1)	413 nM	926 nM	–	–
GUUUUCAGACGGAGAUCCUACAUGAGGAUCACCCAUGUCUCUCUUGCUAAUUGCUCGUCUUAUUCUCCUCUGUUCUC [Elimod 37 - Jieux - Sensor, turn-off variant 1] (Eterna round: R97, puzzle: Sensor, turn-off variant 1)	80.8 nM	100 nM	–	–
UAAAACGUAGGAUAUGCGGAAAAUAACUUGAGGAUCACCCAAGUGUCCGAGAGGCUAAAUGCAGAAGGACGAGAUC [Edxedi] (Eterna round: R97, puzzle: Exclusion 5)	179 nM	105 nM	–	–
UAAAAGACAGGAUAUACUAACAACGACUUGAGGAUCACCCAAGUGGUAAGAGUCGAUCAUGUAGAAGGGUUAAAAC [Atsoce] (Eterna round: R97, puzzle: Exclusion 5)	74.3 nM	28 nM	–	–
UAAAAGCGAGGAUAUACAAACAGGUCCAAAACAUGUCUUGGACAUGAGGAUCACCCAUGUAGAAGGCGUAAAAG [Anleain] (Eterna round: R97, puzzle: Exclusion 2)	558 nM	90.6 nM	–	–
UAAAAGCUAGGAUAUACAUGAGGAUCACCCAUGUAAUCUCUCACUUACACGGAGGAUCGUAGAAGGAGCACAAA [Inlaveti] (puzzle: Exclusion 3)	–	–	20.3 nM	–
UAAAAGGGAGGAUAUACUUGAGGAUCACCCAAGUGAUCCAGACCCUGAACGGUCUAUAGUAGAAGGCCCAAUAA [Teinma] (Eterna round: R97, puzzle: Exclusion 3)	152 nM	58 nM	–	–
UAAAAUAGUGUGAGGAUAUGCUGGUCCUUGGAUCAGCAGAAGGCACAUGAGGAUCACCCAUGUAGAUAAUAAUA [Mat - Exclusion 4 - JL Mod - D26] (puzzle: Brourd's mod of Exclusion 4)	–	–	49.6 nM	apparent KD of MS2 coat protein [3]: 189 nM; apparent KD of MS2 coat protein [4]: 78 nM
UAAAGUAUAUAGGAUAUCUAGCUGGAAACAGCUAGAGAAGGAUGUACAUGAGGAUCACCCAUGUAAAACCUCAA [Ex6/17-A1] (Eterna round: R97, puzzle: Exclusion 6)	45.4 nM	18.3 nM	–	–
UAAAGUAUAUAGGAUAUCUAGCUGGAUACAGCUAGAGAAGGAUGUACAUGAGGAUCACCCAUGUAGAUCUCAAA [Ex6/15-A1] (Eterna round: R97, puzzle: Exclusion 6)	17.4 nM	14.8 nM	–	–
UAAAUUAUAGUAAGGAUAUCAGUCGCGAAAGUGGCUGAGAAGGUACAUGAGGAUCACCCAUGUGAAAUAAGAAU [Mod of Zala 17 - Jieux - Brourd's Mod of Exclusion 4] (Eterna round: R97, puzzle: Brourd's mod of Exclusion 4)	25.7 nM	20 nM	–	–
UAACAGUAAGGAUAUCCAGAUCCAGACAUGAGGAUCACCCAUGUCAUAUACCUUUGACACGGAGAAGGUACGAAAA [EX5 A.4] (Eterna round: R97, puzzle: Exclusion 5)	52.3 nM	52.2 nM	–	–
UAACAUGUCUGAGGAUAUCUGCACGAUUAGUGCAGAGAAGGCAGAACAUGAGGAUCACCCAUGUAGAUCAUUAAUUAAUUAAUU [ENG1/7-B1] (Eterna round: R96, puzzle: Exclusion NG 1)	712 nM	344 nM	–	apparent KD of MS2 coat protein [1]: 288 nM

From the supplement of paper PMC9170038
